Experimental data published in paper PMC5750132.
Read-outs that look alike come from different tables or passages of the source.

Legend:
[1] = biological target: Truncated mouse TMEM16A (amino acids 1-903) (mouse); assay: cryo-EM structure
[2] = biological target: Truncated mouse TMEM16A (amino acids 1-903) (mouse); assay: cryo-EM structure; remark: listed apart in the source

stoichiometry N [1]: 2
stoichiometry N [2]: 2
Substance: Truncated mouse TMEM16A (amino acids 1-903) (domain or fragment)
